The source of these data is publication PMC6440998, “Tunable microsecond dynamics of an allosteric switch regulate the activity of a AAA+ disaggregation machine” (Nature Communications, 2019).

B1: Thermus thermophilus ClpB, wild type (natural protein)
chain: not shown
notes: ClpB of Thermus thermophilus, cloned into pET28b with a six-histidine tag preceded by a TEV site; Homohexamer; also called TT ClpB; WT; source: E. coli BL21 (DE3) pLysS, purified (Ni-NTA, HiPrep DEAE FF)
B2: ClpB S428C-S771C, double-labeled subunit (natural protein)
chain: not shown
modifications: Alexa 488 C5 maleimide (donor) and Alexa 594 C5 maleimide (acceptor) on the cysteines at 428 and 771
notes: ClpB of Thermus thermophilus with two cysteines for the dyes; S428C-S771C is the main construct; also called double-labeled subunits; labeled ClpB; source: E. coli BL21 (DE3) pLysS, purified (Ni-NTA, HiPrep DEAE FF), labeled

Data set [1] deals with the molecule itself. Kind of data set: not stated; test of hexamer assembly shown in Supplementary Figs. 3 and 13 and the supplementary section “Validating the structural integrity of ClpB hexamers”; 2 mM ATP for the labeled sample.
The target in data set [2] is B1. The data set can be described thus: native gel or EMSA + SEC; native gel electrophoresis and gel filtration chromatography of reassembled mixed labeled ClpB and of the WT. Particulars: both partners purified.

As for B1, the “stoichiometry N” value in data set [1] was found to be 6.

B2: the binding result in data set [2] was “binds”.

In general, stoichiometry N refers to a count of units in the complex or per binding partner.
